# Laboratory results published in PMC9372435, “Peptide Centric Vβ Specific Germline Contacts Shape a Specialist T Cell Response” (Frontiers in Immunology, 2022).
# Molecular target: TG6 TCR, acid-base leucine zipper stabilized, soluble, biotinylated (mouse)
# Test: SPR
# Conditions: not given
row,Substance,Kd [nM]
1,soluble L^d-HF10 with alanine at peptide position 4 (peptide-MHC),2400
2,soluble L^d-HF10 with alanine at peptide position 1 (peptide-MHC),1020
3,"soluble L^d-HF10 (L^d α1-α3 with HF10 fused via a linker to β2m, disulfide-trapped) (peptide-MHC)",400
4,soluble L^d-HF10 with alanine at peptide position 2 (peptide-MHC),1840
5,soluble L^d-HF10 with alanine at peptide position 5 (peptide-MHC),1850
6,soluble L^d-HF10 with alanine at peptide position 9 (peptide-MHC),170000
7,"soluble L^d-HF10 (HF10 fused via a linker to β2m, disulfide-trapped), wild-type peptide (peptide-MHC)",420

# System: TG6 TCR
# Test: Surface plasmon resonance of L^d-HF10 (WT and alanine variants) binding to immobilised TG6 TCR
# Parameters: species or system mouse
# Conditions: SPR, BIAcore SA chip, ~2000 RU biotinylated TG6 TCR; soluble L^d-peptide injected; two-state reaction fit
# Source text: We used two systems to generate L^d-HF10. For biophysical and crystallographic studies of pMHC, we produced soluble L^d-HF10 by baculovirus-infected insect cell expression ([26]). The DNA encoding L^d (α1-α3) and HF10 (or alanine substituted variants) fused via a linker to β2m were cloned into pbac plasmid under polyhedrin and p10 promoters to produce secreted soluble Ld-HF10 from Hi5 insect cells. In this construct, L^d Tyr 84 and Gly at peptide p12 position from the linker that attaches β2m to pHF10 were mutated to cysteines to form a disulfide bond ([27]). Secreted L^d-HF10 in insect cell medium was captured with immunoaffinity chromatography and further purified by GE Healthcare FPLC Superdex 200 10/300 GL size exclusion column. For the crystallography of the TCR/peptide/MHC ternary complex, we produced the wild type L^d variable region (α1-α2). L^d (α1-α2) was expressed in E. coli BL21 as an inclusion body, solubilized in 8M urea, and refolded with synthetic HF10 peptide (HPGSVNEFDF, ordered from Peptide 2.0 Inc.) ([28], [29]). Refolded L^d-HF10 was further purified with a HiLoad Superdex 200 26/600 size chromatography column.
# TG6 α and β TCR chains were also produced by both baculovirus insect cell and bacterial expression systems. […]
# Approximately 2000 RU of biotinylated TG6 TCR was captured in the flow cells of a BIAcore streptavidin (SA) BIAsensor chip. Various concentrations of insect cell-produced L^d-HF10 and its mutated variant peptides were injected into the sensor chip and the association and dissociation kinetics were recorded and then corrected for the fluid phase SPR signal using the data from the biotinylated mouse BDC2.5 TCR. Kinetics was analyzed with BIAcore BIAEval 4 software. […]
# (A) Corrected surface plasmon resonance (SPR) data for the binding of various concentrations of soluble L^d-HF10 to ~2000 RU of biotinylated TG6 TCR immobilized in flow cell on SA sensor chip. […] Upregulation of surface CD25 and CD44 in response to TCR stimulation was measured by flow cytometry. […]
Substance,ka2 [s⁻¹],kd1 [s⁻¹],kd2 [s⁻¹]
"HPGSVNEFDF [HF10, 10mer peptide from the C-terminus of T. gondii protein GRA6, presented by MHC-I L^d]",0.002,0.014,0.005

# System: tetramer+ CD8 T cells
# Test: Immunization with peptide-loaded dendritic cells, expansion of tetramer+ CD8 T cells
# Format: in vivo
# Conditions: F1 (H2^bxd) mice, 5x10^6 dendritic cells loaded with 1μM peptide s.c., spleen 7 days post immunization, versus numbers in naive mice
# Protocol: Bone marrow-derived dendritic cells from male mice were incubated with 1μM of peptide for 3 hours at 37°C. Cells were washed and 5x10^6 peptide-loaded dendritic cells were injected subcutaneously into naive F1 (H2^bxd) female mice. Mice were sacrificed 7 days post immunization. Peptide sequences: HF10: HPGSVNEFDF; ROP5: YAVANYFFL; GRA4: SPMNGGYYM.
# Figure 1 Characteristics of the L^d-HF10 specific T cell response. (A) T. gondii-specific CD8 T cells were quantified by pMHC tetramer staining and flow cytometry of splenocytes at different time points after intraperitoneal infection of F1 (B6xB6.C) mice. Fold change between naive and expanded T cells was calculated using the average number of tetramer+ cells in each population in naive mice (GRA6 = 74.4, ROP5: 654.9, GRA4: 1330). (B) Flow cytometric analysis of size (FSC or forward scatter) or expression of activation and effector markers (CD71, KLRG1, and CD25) on gated tetramer^+ splenic CD8 T cells at day 5 post infection. (C) Mice were immunized with bone marrow-derived dendritic cells loaded with the indicated peptides. Expanded tetramer^+ CD8 T cells were quantified by tetramer staining of splenocytes 7 days post immunization (open circles). Numbers of tetramer^+ CD8 T cells in the spleen were quantified by tetramer enrichment of naïve mice and were used to calculate the fold expansion of each antigen-specific T cell population (closed circles). Statistical significance of differences in fold change between the three groups was calculated using Mann-Whitney tests. GRA6 vs. GRA4: p < 0.0001, GRA6 vs. ROP5: p < 0.0001, GRA4 vs. ROP5: p=0.0002. Statistical significance between tetramer+ T cell populations was calculated by two-way ANOVA. The interaction p-values are as follows: GRA6 vs. GRA4: p < 0.0001, GRA6 vs. ROP5: p < 0.0001, GRA4 vs. ROP5: p=0.99. (D) The frequency of Vβ2 usage amongst L^d-HF10 specific splenic CD8 T cells tetramer enriched from naïve mice or found in T. gondii-infected mice was determined by flow cytometry. […] Clonal diversity in L^d-HF10 specific CD8 T cells was analyzed using the TCRdist algorithm ([40]). […]
row,Substance,Fold expansion of tetramer+ CD8 T cells [x]
1,"HPGSVNEFDF [HF10, 10mer peptide from the C-terminus of T. gondii protein GRA6, presented by MHC-I L^d]",4000
2,YAVANYFFL [ROP5],300
3,SPMNGGYYM [GRA4],50

# Molecular target: H2-L^d on TAP-deficient RMA-S.L^d cells
# Test: flow cytometry on cells (RMA-S.Ld surface Ld stabilisation)
# Conditions: read at the highest peptide concentration, log [peptide in µM] = 0; parent: est. 670; read off a plot
row,Substance,response [MFI]
1,HF10 peptide p4A,720
2,HF10 peptide p9A,430
3,HF10 peptide p1A,550
4,HF10 peptide p5A,400
5,HF10 peptide p10A,60
6,HF10 peptide p2A,100
7,HF10 peptide p6A,440
8,HF10 peptide p7A,670
9,HF10 peptide p8A,120
10,HF10 peptide p3A,690
